Patent KR20200059381A

Assays:
[1] = biological target: 구제역 바이러스 혈청형 O 배양액(cal1~cal4) (Foot-and-mouth disease virus serotype O); test: sandwich ELISA, cal3, 1E58 coat 2 ug/ml, 1E58-HRP 0.2 ug/ml, 450 nm
[2] = biological target: 구제역 바이러스 혈청형 O 배양액(cal1~cal4) (Foot-and-mouth disease virus serotype O); test: sandwich ELISA, cal3, 1E58 coat 4 ug/ml, 1E58-HRP 0.2 ug/ml, 450 nm
[3] = biological target: 구제역 바이러스 혈청형 O 배양액(cal1~cal4) (Foot-and-mouth disease virus serotype O); test: sandwich ELISA, cal3, 1E58 coat 1 ug/ml, 1E58-HRP 0.6 ug/ml, 450 nm
[4] = biological target: 구제역 바이러스 혈청형 O 배양액(cal1~cal4) (Foot-and-mouth disease virus serotype O); test: sandwich ELISA, cal1, 1E58 coat 4 ug/ml, 1E58-HRP 0.6 ug/ml, 450 nm
[5] = biological target: 구제역 바이러스 혈청형 O 배양액(cal1~cal4) (Foot-and-mouth disease virus serotype O); test: sandwich ELISA, cal4, 1E58 coat 2 ug/ml, 1E58-HRP 0.6 ug/ml, 450 nm
[6] = biological target: 구제역 바이러스 혈청형 O 배양액(cal1~cal4) (Foot-and-mouth disease virus serotype O); test: sandwich ELISA, cal4, 1E58 coat 4 ug/ml, 1E58-HRP 0.2 ug/ml, 450 nm
[7] = biological target: 구제역 바이러스 혈청형 O 배양액(cal1~cal4) (Foot-and-mouth disease virus serotype O); test: sandwich ELISA, cal2, 1E58 coat 2 ug/ml, 1E58-HRP 0.4 ug/ml, 450 nm
[8] = biological target: 구제역 바이러스 혈청형 O 배양액(cal1~cal4) (Foot-and-mouth disease virus serotype O); test: sandwich ELISA, cal4, 1E58 coat 8 ug/ml, 1E58-HRP 0.4 ug/ml, 450 nm
[9] = biological target: 구제역 바이러스 혈청형 O 배양액(cal1~cal4) (Foot-and-mouth disease virus serotype O); test: sandwich ELISA, cal3, 1E58 coat 2 ug/ml, 1E58-HRP 0.6 ug/ml, 450 nm
[10] = biological target: 구제역 바이러스 혈청형 O 배양액(cal1~cal4) (Foot-and-mouth disease virus serotype O); test: sandwich ELISA, cal4, 1E58 coat 4 ug/ml, 1E58-HRP 0.6 ug/ml, 450 nm
[11] = biological target: 구제역 바이러스 혈청형 O 배양액(cal1~cal4) (Foot-and-mouth disease virus serotype O); test: sandwich ELISA, cal3, 1E58 coat 8 ug/ml, 1E58-HRP 0.4 ug/ml, 450 nm
[12] = biological target: 구제역 바이러스 혈청형 O 배양액(cal1~cal4) (Foot-and-mouth disease virus serotype O); test: sandwich ELISA, cal3, 1E58 coat 1 ug/ml, 1E58-HRP 0.8 ug/ml, 450 nm
[13] = biological target: 구제역 바이러스 혈청형 O 배양액(cal1~cal4) (Foot-and-mouth disease virus serotype O); test: sandwich ELISA, cal4, 1E58 coat 1 ug/ml, 1E58-HRP 0.8 ug/ml, 450 nm
[14] = biological target: 구제역 바이러스 혈청형 O 배양액(cal1~cal4) (Foot-and-mouth disease virus serotype O); test: sandwich ELISA, cal2, 1E58 coat 4 ug/ml, 1E58-HRP 0.2 ug/ml, 450 nm
[15] = biological target: 불활화 FMDV 혈청형 O (Foot-and-mouth disease virus serotype O)
[16] = biological target: 불활화 FMDV 혈청형 Asia1 (Foot-and-mouth disease virus serotype Asia1)
[17] = biological target: 불활화 FMDV 혈청형 A (Foot-and-mouth disease virus serotype A)
[18] = biological target: 구제역 바이러스 혈청형 O 배양액(cal1~cal4) (Foot-and-mouth disease virus serotype O); test: sandwich ELISA, cal3, 1E58 coat 2 ug/ml, 1E58-HRP 0.8 ug/ml, 450 nm
[19] = biological target: 구제역 바이러스 혈청형 O 배양액(cal1~cal4) (Foot-and-mouth disease virus serotype O); test: sandwich ELISA, cal2, 1E58 coat 4 ug/ml, 1E58-HRP 0.8 ug/ml, 450 nm
[20] = biological target: 구제역 바이러스 혈청형 O 배양액(cal1~cal4) (Foot-and-mouth disease virus serotype O); test: sandwich ELISA, cal1, 1E58 coat 1 ug/ml, 1E58-HRP 0.2 ug/ml, 450 nm
[21] = biological target: 구제역 바이러스 혈청형 O 배양액(cal1~cal4) (Foot-and-mouth disease virus serotype O); test: sandwich ELISA, cal2, 1E58 coat 1 ug/ml, 1E58-HRP 0.2 ug/ml, 450 nm
[22] = biological target: 구제역 바이러스 혈청형 O 배양액(cal1~cal4) (Foot-and-mouth disease virus serotype O); test: sandwich ELISA, cal4, 1E58 coat 2 ug/ml, 1E58-HRP 0.4 ug/ml, 450 nm
[23] = biological target: 구제역 바이러스 혈청형 O 배양액(cal1~cal4) (Foot-and-mouth disease virus serotype O); test: sandwich ELISA, cal1, 1E58 coat 8 ug/ml, 1E58-HRP 0.8 ug/ml, 450 nm
[24] = biological target: 구제역 바이러스 혈청형 O 배양액(cal1~cal4) (Foot-and-mouth disease virus serotype O); test: sandwich ELISA, cal3, 1E58 coat 1 ug/ml, 1E58-HRP 0.4 ug/ml, 450 nm
[25] = biological target: 구제역 바이러스 혈청형 O 배양액(cal1~cal4) (Foot-and-mouth disease virus serotype O); test: sandwich ELISA, cal4, 1E58 coat 8 ug/ml, 1E58-HRP 0.2 ug/ml, 450 nm
[26] = biological target: 구제역 바이러스 혈청형 O 배양액(cal1~cal4) (Foot-and-mouth disease virus serotype O); test: sandwich ELISA, cal2, 1E58 coat 4 ug/ml, 1E58-HRP 0.4 ug/ml, 450 nm
[27] = biological target: 구제역 바이러스 혈청형 O 배양액(cal1~cal4) (Foot-and-mouth disease virus serotype O); test: sandwich ELISA, cal3, 1E58 coat 4 ug/ml, 1E58-HRP 0.4 ug/ml, 450 nm
[28] = biological target: 구제역 바이러스 혈청형 O 배양액(cal1~cal4) (Foot-and-mouth disease virus serotype O); test: sandwich ELISA, cal4, 1E58 coat 4 ug/ml, 1E58-HRP 0.8 ug/ml, 450 nm
[29] = biological target: 구제역 바이러스 혈청형 O 배양액(cal1~cal4) (Foot-and-mouth disease virus serotype O); test: sandwich ELISA, cal4, 1E58 coat 8 ug/ml, 1E58-HRP 0.6 ug/ml, 450 nm

B1: 단클론항체 1E58 (antibody, V domains shown)
VH: EFQLQQSRPELAKPGASVKISCKTSGHTFTTYTMHWVKQSHVKSLEWIGCFNPNNGGATYNQKFKGKATLTMDKSSNTAYVEVRSLTSDDSAVYYCAYGNYVNFDYWGQGTTLTVSS
VL: DIVLTQSPASLAVSLGQRATISYRASKSVSTSGYSYMHWNQQKPGQPPRLLIYLVSNLESGVPARFSGSGSGTDFTLNIHPVEEEDAATYYCQHIRELTRSEGGPSWKN
O.D [1]: 0.98 O.D
O.D [2]: 1.14 O.D
O.D [3]: 0.83 O.D
O.D [4]: 4 O.D
O.D [5]: 0.87 O.D
O.D [6]: 0.63 O.D
O.D [7]: 2.49 O.D
O.D [8]: 0.39 O.D
O.D [9]: 1.89 O.D
O.D [10]: 1.11 O.D
O.D [11]: 0.96 O.D
O.D [12]: 1.17 O.D
O.D [13]: 1.07 O.D
O.D [14]: 2.09 O.D
ELISA screening plate (O.D) [15]: 2.02 O.D
ELISA screening plate (O.D) [16]: 1.93 O.D
ELISA screening plate (O.D) [17]: 2.13 O.D
O.D [18]: 2.08 O.D
O.D [19]: 3.75 O.D
O.D [20]: 1.81 O.D
O.D [21]: 1.06 O.D
O.D [22]: 0.56 O.D
O.D [23]: 4 O.D
O.D [24]: 0.77 O.D
O.D [25]: 0.27 O.D
O.D [26]: 3.08 O.D
O.D [27]: 1.78 O.D
O.D [28]: 1.46 O.D
O.D [29]: 0.62 O.D
